For orientation: stoichiometry N means the number of molecules, sites or subunits per partner or assembly.

These results are taken from paper PMC4001850 (Journal of Alzheimer's disease : JAD, 2011).

The data set deals with the molecule itself. Nature of the data set: SEC.

Where no end group is shown, it is not given here.

B1: eAβPP_(290-624), His-Patch thioredoxin fusion (52-kDa) (domain or fragment, human, UniProt P05067-4 290-624, looked up)
chain: PTTAASTPDAVDKYLETPGDENEHAHFQKAKERLEAKHRERMSQVMREWEEAERQAKNLPKADKKAVIQHFQEKVESLEQEAANERQQLVETHMARVEAMLNDRRRLALENYITALQAVPPRPRHVFNMLKKYVRAEQKDRQHTLKHFEHVRMVDPKKAAQIRSQVMTHLRVIYERMNQSLSLLYNVPAVAEEIQDEVDELLQKEQNYSDDVLANMISEPRISYGNDALMPSLTETKTTVELLPVNGEFSLDDLQPWHSFGADSVPANTENEVEPVDARPAADRGLTTRPGSGLTNIKTEEISEVKMDAEFRHDSGYEVHHQKLVFFAEDVGSNK
With B1, the “stoichiometry N” value is approximately 2.

B2: eAβPP_(575-624), His-Patch thioredoxin fusion (20-kDa) (domain or fragment, human, UniProt P05067-4 575-624, looked up)
chain: LTTRPGSGLTNIKTEEISEVKMDAEFRHDSGYEVHHQKLVFFAEDVGSNK
modifications: also: His-Patch thioredoxin fusion (20 kDa), side not given here
As for B2, the “stoichiometry N” value is approximately 2.
